Laboratory results published in US20140302033A1 (UCB, published 2014).

B1: FabA-dsscFv (CH1-dsscFv) (bispecific antibody)
chain 1: EVQLVESGGGLVQPGGSLRLSCAASGFTFTNYGIHWIRQAPGKGLEWVASISPSGGLTYYRDSVKGRFTISRDDAKNSPYLQMNSLRAEDTAVYYCATGGEGIFDYWGQGTLVTVSSASTKGPSVFPLAPSSKSTSGGTAALGCLVKDYFPEPVTVSWNSGALTSGVHTFPAVLQSSGLYSLSSVVTVPSSSLGTQTYICNVNHKPSNTKVDKKVEPKSCSGGGGSGGGGTGGGGSEVQLLESGGGLVQPGGSLRLSCAVSGIDLSNYAINWVRQAPGKCLEWIGIIWASGTTFYATWAKGRFTISRDNSKNTVYLQMNSLRAEDTAVYYCARTVPGYSTAPYFDLWGQGTLVTVSSGGGGSGGGGSGGGGSGGGGSDIQMTQSPSSVSASVGDRVTITCQSSPSVWSNFLSWYQQKPGKAPKLLIYEASKLTSGVPSRFSGSGSGTDFTLTISSLQPEDFATYYCGGGYSSISDTTFGCGTKVEIKRT
chain 2: DIQMTQSPSSLSASVGDRVTITCRATQSIYNALAWYQQKPGKAPKLLIYNANTLHTGVPSRFSASGSGTDSTLTISSLQPEDFATYYCQQYYDYPLTFGGGTKVEIKRTVAAPSVFIFPPSDEQLKSGTASVVCLLNNFYPREAKVQWKVDNALQSGNSQESVTEQDSKDSTYSLSSTLTLSKADYEKHKVYACEVTHQGLSSPVTKSFNRGEC
B2: FabA-dsscFv (CL-dsscFv) (bispecific antibody)
chain 1: DIQMTQSPSSLSASVGDRVTITCRATQSIYNALAWYQQKPGKAPKLLIYNANTLHTGVPSRFSASGSGTDSTLTISSLQPEDFATYYCQQYYDYPLTFGGGTKVEIKRTVAAPSVFIFPPSDEQLKSGTASVVCLLNNFYPREAKVQWKVDNALQSGNSQESVTEQDSKDSTYSLSSTLTLSKADYEKHKVYACEVTHQGLSSPVTKSFNRGECSGGGGSGGGGSGGGGSEVQLLESGGGLVQPGGSLRLSCAVSGIDLSNYAINWVRQAPGKCLEWIGIIWASGTTFYATWAKGRFTISRDNSKNTVYLQMNSLRAEDTAVYYCARTVPGYSTAPYFDLWGQGTLVTVSSGGGGSGGGGSGGGGSGGGGSDIQMTQSPSSVSASVGDRVTITCQSSPSVWSNFLSWYQQKPGKAPKLLIYEASKLTSGVPSRFSGSGSGTDFTLTISSLQPEDFATYYCGGGYSSISDTTFGCGTKVEIKRT
chain 2: EVQLVESGGGLVQPGGSLRLSCAASGFTFTNYGIHWIRQAPGKGLEWVASISPSGGLTYYRDSVKGRFTISRDDAKNSPYLQMNSLRAEDTAVYYCATGGEGIFDYWGQGTLVTVSSASTKGPSVFPLAPSSKSTSGGTAALGCLVKDYFPEPVTVSWNSGALTSGVHTFPAVLQSSGLYSLSSVVTVPSSSLGTQTYICNVNHKPSNTKVDKKVEPKSC
B3: A26 Fab-dsFv (645gH5gL4) (bispecific antibody)
heavy: EVQLVESGGGLVQPGGSLRLSCAASGFTFTNYGIHWIRQAPGKGLEWVASISPSGGLTYYRDSVKGRFTISRDDAKNSPYLQMNSLRAEDTAVYYCATGGEGIFDYWGQGTLVTVSSASTKGPSVFPLAPSSKSTSGGTAALGCLVKDYFPEPVTVSWNSGALTSGVHTFPAVLQSSGLYSLSSVVTVPSSSLGTQTYICNVNHKPSNTKVDKKVEPKSCSGGGGSGGGGTGGGGSEVQLLESGGGLVQPGGSLRLSCAVSGIDLSNYAINWVRQAPGKCLEWIGIIWASGTTFYATWAKGRFTISRDNSKNTVYLQMNSLRAEDTAVYYCARTVPGYSTAPYFDLWGQGTLVTVSS
light: DIQMTQSPSSLSASVGDRVTITCRATQSIYNALAWYQQKPGKAPKLLIYNANTLHTGVPSRFSASGSGTDSTLTISSLQPEDFATYYCQQYYDYPLTFGGGTKVEIKRTVAAPSVFIFPPSDEQLKSGTASVVCLLNNFYPREAKVQWKVDNALQSGNSQESVTEQDSKDSTYSLSSTLTLSKADYEKHKVYACEVTHQGLSSPVTKSFNRGECGGGGSGGGGSGGGGSDIQMTQSPSSVSASVGDRVTITCQSSPSVWSNFLSWYQQKPGKAPKLLIYEASKLTSGVPSRFSGSGSGTDFTLTISSLQPEDFATYYCGGGYSSISDTTFGCGTKVEIKRT
notes: Anti-OX40 A26 Fab fused to the disulphide-stabilised anti-albumin Fv 645gH5gL4; In the cell assay (2.4) it was labelled with Alexa Fluor 488; also called A26 Fab-Fv; Fab-Fv

Legend:
Human Serum Albumin [1] = target: T1, Human Serum Albumin (human, UniProt P02768 25-609); assay: kinetics table, analyte HSA, titration 50nM, 25nM, 12.5nM, 6.25nM; HEK293 material; method not named in Example 4
T1 construct: also called HSA; HAS

Human Serum Albumin [2] = target: T1, Human Serum Albumin; assay: kinetics table, analyte HSA, single concentration 50nM; HEK293 material; method not named in Example 4
Human Serum Albumin [3] = target: T1, Human Serum Albumin; assay: SPR BIAcore T200; Fab-Fv captured by anti-human F(ab')2, albumin as analyte; average of 3
Method: (§1) BIA (Biamolecular Interaction Analysis) was performed using a BIAcore T200 (GE Healthcare). Affinipure F(ab′)₂ Fragment goat anti-human IgG, F(ab′)₂ fragment specific (Jackson ImmunoResearch) was immobilised on a CM5 Sensor Chip via amine coupling chemistry to a capture level of ≈5000 response units (RUs). HBS-EP buffer (10 mM HEPES pH 7.4, 0.15 M NaCl, 3 mM EDTA, 0.05% Surfactant P20, GE Healthcare) was used as the running buffer with a flow rate of 10 μl/min. A 10 μL injection of Fab-Fv at 0.75 μg/mL was used for capture by the immobilised anti-human IgG-F(ab′)₂. Human Serum Albumin (HSA), Mouse Serum albumin (MSA) and Cynomolgus Serum Albumin (CSA) was titrated over the captured Fab-Fv at various concentrations (50 nM to 6.25 nM) at a flow rate of 30 μL/min. The surface was regenerated by 2×10 μL injection of 50 mM HCl, followed by a 5 μL injection of 5 mM NaOH at a flowrate of 10 μL/min. Background subtraction binding curves were analysed using the T200evaluation software (version 1.0) following standard procedures. Kinetic parameters were determined from the fitting algorithm.

Mouse Serum albumin = target: T2, Mouse Serum albumin (mouse, UniProt P07724 25-608); assay: as above
T2 construct: also called MSA
Method: as §1

Cynomolgus Serum Albumin = target: T3, Cynomolgus Serum Albumin (cynomolgus, UniProt A2V9Z4 25-608); assay: as above
T3 construct: also called CSA
Method: as §1

Binder	Kd (Human Serum Albumin [1]) [nM]	koff (Human Serum Albumin [1]) [s⁻¹]	kon (Human Serum Albumin [1]) [M⁻¹ s⁻¹]	Kd (Human Serum Albumin [2]) [nM]	koff (Human Serum Albumin [2]) [s⁻¹]	kon (Human Serum Albumin [2]) [M⁻¹ s⁻¹]	Kd (Human Serum Albumin [3]) [nM]	koff (Human Serum Albumin [3]) [s⁻¹]	kon (Human Serum Albumin [3]) [M⁻¹ s⁻¹]	Kd (Mouse Serum albumin) [nM]	koff (Mouse Serum albumin) [s⁻¹]	kon (Mouse Serum albumin) [M⁻¹ s⁻¹]	Kd (Cynomolgus Serum Albumin) [nM]	koff (Cynomolgus Serum Albumin) [s⁻¹]	kon (Cynomolgus Serum Albumin) [M⁻¹ s⁻¹]
B1	1.29	0.000222	172000	1.25	0.000199	160000	–	–	–	–	–	–	–	–	–
B2	1.31	0.00024	183000	1.28	0.000211	165000	–	–	–	–	–	–	–	–	–
B3	–	–	–	–	–	–	2.93	0.000163	58400	4.16	0.000368	88600	2.66	0.000189	71000
